Test results: patent US20120039802A1 (published 2012)
fluorescein = fluorescein label on the side chain of the C-terminal Lys

What was measured:
[1] = target: T1, mouse cMet (mouse, UniProt P16056 25-931, limits assumed); test: fluorescence polarization, mouse target
T1 construct: Construct not described; also called Kd (mouse) target
Description: (§1) Fluorescence anisotropy measurements were performed in 384-well microplates in a volume of 10 μL in binding buffer (PBS, 0.01% Tween-20, pH 7.5) using a Tecan Polarion fluorescence polarization plate reader ([…]). […] Binding mixtures were equilibrated for 10 minutes in the microplate at 30 C before measurement. The observed change in anisotropy was fit to the equation below via nonlinear regression to obtain the apparent KD. This equation (1) assumes that the synthetic peptide and cMet form a reversible complex in solution with 1:1 stoichiometry.

[2] = target: T2, cMet-Fc fusion protein (extracellular domain of the cMet receptor expressed as an Fc-fusion protein) (human, UniProt P08581 25-932); test: fluorescence polarization, 20 nM fluorescein peptide, cMet-Fc varied
T2 construct: extracellular domain; also called soluble cMet-Fc-fusion protein; soluble cMet receptor; not shown: Fc part
T2 sequence (P08581 25-932): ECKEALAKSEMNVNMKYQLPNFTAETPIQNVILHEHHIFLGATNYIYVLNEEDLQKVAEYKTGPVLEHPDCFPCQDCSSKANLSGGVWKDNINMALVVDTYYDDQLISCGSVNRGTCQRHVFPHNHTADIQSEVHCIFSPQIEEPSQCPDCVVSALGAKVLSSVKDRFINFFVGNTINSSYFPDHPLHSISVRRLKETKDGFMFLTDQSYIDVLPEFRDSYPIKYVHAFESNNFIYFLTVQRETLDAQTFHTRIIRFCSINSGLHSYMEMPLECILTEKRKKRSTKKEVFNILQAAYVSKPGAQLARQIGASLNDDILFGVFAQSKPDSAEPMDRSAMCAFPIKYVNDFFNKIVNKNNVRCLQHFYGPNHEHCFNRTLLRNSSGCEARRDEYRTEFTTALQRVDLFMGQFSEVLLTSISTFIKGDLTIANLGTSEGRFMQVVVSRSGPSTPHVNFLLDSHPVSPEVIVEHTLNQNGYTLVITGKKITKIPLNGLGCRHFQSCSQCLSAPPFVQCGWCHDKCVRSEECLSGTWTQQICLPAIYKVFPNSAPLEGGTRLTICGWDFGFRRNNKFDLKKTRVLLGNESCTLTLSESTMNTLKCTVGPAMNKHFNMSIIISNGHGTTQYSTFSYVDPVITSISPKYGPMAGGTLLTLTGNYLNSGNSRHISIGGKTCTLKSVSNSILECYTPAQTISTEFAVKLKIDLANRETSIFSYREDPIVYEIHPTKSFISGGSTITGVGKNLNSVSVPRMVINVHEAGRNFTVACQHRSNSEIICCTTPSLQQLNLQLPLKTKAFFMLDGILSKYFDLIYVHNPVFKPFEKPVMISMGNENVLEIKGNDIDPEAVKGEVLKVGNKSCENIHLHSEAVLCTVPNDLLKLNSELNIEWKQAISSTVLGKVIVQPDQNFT
Description: as §1

[3] = target: T1, mouse cMet; test: fluorescence polarization

T1 sequence (P16056 25-931 limits assumed): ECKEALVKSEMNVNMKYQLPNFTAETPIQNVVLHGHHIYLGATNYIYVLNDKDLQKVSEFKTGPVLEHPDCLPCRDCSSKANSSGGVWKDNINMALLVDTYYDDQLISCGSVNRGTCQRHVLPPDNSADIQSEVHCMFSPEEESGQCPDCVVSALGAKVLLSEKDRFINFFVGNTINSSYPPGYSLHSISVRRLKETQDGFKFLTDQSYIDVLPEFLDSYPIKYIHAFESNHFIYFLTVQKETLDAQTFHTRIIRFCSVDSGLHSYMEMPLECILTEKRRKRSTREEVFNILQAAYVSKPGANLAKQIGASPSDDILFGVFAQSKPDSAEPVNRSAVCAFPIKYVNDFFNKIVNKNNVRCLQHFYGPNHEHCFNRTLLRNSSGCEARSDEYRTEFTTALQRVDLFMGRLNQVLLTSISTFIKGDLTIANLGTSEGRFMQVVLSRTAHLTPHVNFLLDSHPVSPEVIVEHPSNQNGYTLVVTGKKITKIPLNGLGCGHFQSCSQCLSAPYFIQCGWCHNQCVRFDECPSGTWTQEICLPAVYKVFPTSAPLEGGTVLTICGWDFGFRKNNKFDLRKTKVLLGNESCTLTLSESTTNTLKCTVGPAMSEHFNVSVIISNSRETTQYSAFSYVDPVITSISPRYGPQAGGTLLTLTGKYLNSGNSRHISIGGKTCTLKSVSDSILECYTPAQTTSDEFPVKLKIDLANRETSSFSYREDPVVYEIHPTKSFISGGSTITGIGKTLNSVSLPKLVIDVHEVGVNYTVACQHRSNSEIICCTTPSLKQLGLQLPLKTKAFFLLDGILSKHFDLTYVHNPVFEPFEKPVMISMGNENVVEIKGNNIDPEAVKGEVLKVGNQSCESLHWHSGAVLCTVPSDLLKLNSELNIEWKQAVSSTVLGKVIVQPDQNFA

Row | Binder | Kd [1] | Kd [2] | binding result [3]
1 | Ac-AQEWEREYFVDGFWGSWFGIPHGGGK(fluorescein)-NH2 [130-E10 synthetic fluorescein-labeled peptide (SEQ ID NO: 472)] | 7.65 µM | 2.6 µM | 
2 | Ac-AQWPHDGLVHWGEVIMLRFGGGK(fluorescein)-NH2 [117-F04 synthetic fluorescein-labeled peptide (SEQ ID NO: 479)] |  | 1.7 µM | 
3 | Ac-GSWIICWWDNCGSSAPGGGK(fluorescein)-NH2 (cysteine pairing not given here) [571-C05 synthetic fluorescein-labeled peptide (SEQ ID NO: 001)] | 3.5 µM | 0.2 µM | 
4 | Ac-AGSWHCAGPPSFECWEFGTGGGK(fluorescein)-NH2 (cysteine pairing not given here) [331-G04 synthetic fluorescein-labeled peptide (SEQ ID NO: 055)] | 1.1 µM | 0.9 µM | 
5 | Ac-GSPEMCMMFPFLYPCNHHAPGGGK(fluorescein)-NH2 (cysteine pairing not given here) [548-F07 synthetic fluorescein-labeled peptide (SEQ ID NO: 369)] |  |  | no binding
6 | Ac-GDYSECFFEPDSFEVKCYDRDPGGGK(fluorescein)-NH2 (cysteine pairing not given here) [545-H12 synthetic fluorescein-labeled peptide (SEQ ID NO: 399)] |  | 1.15 µM | no binding
7 | Ac-GSFFPCWRIDRFGYCHANAPGGGK(fluorescein)-NH2 (cysteine pairing not given here) [551-H10 synthetic fluorescein-labeled peptide (SEQ ID NO: 370)] |  | 0.22 µM | no binding
8 | Ac-AQVEDMATVHFKFNPATHEVIWGGGK(fluorescein)-NH2 [524-H02 synthetic fluorescein-labeled peptide (SEQ ID NO: 492)] |  | 0.8 µM | 
